{"source": "patent US20030017568A1", "about": "“Smooth muscle myosin phosphatase associated kinase” (priority 2001, published 2003)", "test_system": "permealized rabbit longitudinal ileum smooth muscle strips", "assay": "Force in permeabilized rabbit longitudinal ileum smooth muscle strips (Ca2+-sensitization)", "procedure": "Instead, when rN-ZIP^1-320 kinase is added a 40% increase in muscular force is produced at the same submaximal calcium concentration.", "data": [{"molecule": "rN-ZIP^1-320 kinase: recombinant 38 kDa GST-fusion protein of the N-terminal region (1-320) of ZIP kinase, expressed in E. coli, constitutively active (protein, UniProt O43293 1-320, looked up, fragment, GST fusion) MSTFRQEDVEDHYEMGEELGSGQFAIVRKCRQKGTGKEYAAKFIKKRRLSSSRRGVSREEIEREVNILREIRHPNIITLHDIFENKTDVVLILELVSGGELFDFLAEKESLTEDEATQFLKQILDGVHYLHSKRIAHFDLKPENIMLLDKNVPNPRIKLIDFGIAHKIEAGNEFKNIFGTPEFVAPEIVNYEPLGLEADMWSIGVITYILLSGASPFLGETKQETLTNISAVNYDFDEEYFSNTSELAKDFIRRLLVKDPKRRMTIAQSLEHSWIKAIRRRNVRGEDSGRKPERRRLKTTRLKEYTIKSHSSLPPNNSYA", "values": [{"measurement": "Increase in muscular force", "setting": "at the same submaximal calcium concentration", "result": 40, "unit": "%"}, {"measurement": "Contraction in the absence of calcium", "setting": "permeabilized ileum strips, no calcium", "result": "does not cause contraction"}]}]}
